Two molecules from US20260265360A1, “USE OF ANTI-FAM19A5 ANTAGONISTS FOR TREATING HEARING DISORDERS” (NEURACLE SCIENCE CO., LTD., priority 2023, published 2026) can be followed below.

For assay [1], the system named is noise-induced hearing loss mouse model. As to the kind of experiment: Dosage effect in noise-induced hearing loss mouse model (ABR threshold). The format is in vivo. The protocol: FIGS. 15A, 15B, 15C, 15D, and 15E show the dose-dependent effects of FAM19A5 antagonist administration on ABR threshold in a noise-induced hearing loss mouse model. FIG. 15A provides a schematic of the experimental design. As shown, one day after noise exposure, the animals received varying concentrations of the anti-FAM19A5 antibody (1-30) (i.e., 0 mg/kg, 3 mg/kg, 7 mg/kg, 15 mg/kg, and 30 mg/kg). After noise exposure, control animals received a human anti-IgG antibody (30 mg/kg). ABR threshold was measured at one day after noise exposure and at two weeks after noise exposure. FIG. 15B provides a comparison of ABR threshold for the different treatment groups across a frequency of 0 kHz to 64 kHz at one day after noise exposure. FIG. 15C provides the same data shown in FIG. 15B except as bar graphs. FIG. 15D provides a comparison of ABR threshold for the different treatment groups across a frequency of 0 kHz to 64 kHz at two weeks after noise exposure. FIG. 15E provides the same data shown in […] except as bar graphs. In each of FIGS. 15B-15E, ABR threshold prior to noise exposure is also shown (“BN”). In both FIGS. 15C and 15E, for each of the frequency groups shown, the first bar (from the left) corresponds to pre-noise exposure (“BN”), the second bar corresponds to animal streated with the control anti-IgG antibody (“hIgG”), the third bar corresponds to animals treated with 0 mg/kg of the anti-FAM19A5 antibody, the fourth bar corresponds to animals treated with 3 mg/kg of the anti-FAM19A5 antibody, the fifth bar corresponds to animals treated with 7 mg/kg of the anti-FAM19A5 antibody, the sixth bar corresponds to animals treated with 15 mg/kg of the anti-FAM19A5 antibody, and the last bar corresponds to animals treated with 30 mg/kg of the anti-FAM19A5 antibody.
To assess whether the above-described therapeutic effects of FAM19A5 antagonists on hearing loss is dose dependent, the noise-induced hearing loss mouse model described in Example 3 was used. […] ABR threshold was measured prior to noise exposure, one day after noise exposure, and two weeks after noise exposure.

In assay [2] the test system is primary mouse spiral ganglion neurons. As to the kind of experiment: Promotion of neurite outgrowth. Particulars: neurons isolated at postnatal day 4; neurofilament staining. The format is cell-based. The procedure:
Sprial ganglion neuron were cultured in culture media consisting of high-glucose (4.5 mg/mL) DMEM, 0.1 mg/ml penicillin, 0.1 mg/mL streptomycin, N2 supplement, and 10 µg/mL insulin and was designated here as “5K” because in this media, [K+]=5.4 mM. A depolarizing media, designated as “30K,” in which Na was replaced with equimolar K to raise [K] to 30 mM while maintaining osmolarity was also used.
Dissociated spiral ganglion cell cultures were prepared from postnatal day 4-5 (P4-5) cochleae and maintained using a procedure modified from the methods described by Bok et al., J Neurosci 23 (3): 777-87 (2003), which is incorporated herein by reference in its entirety. The cochleae were aseptically dissected from the temporal bone and submerged in ice-cold HBSS (Gibco). Subsequent steps involved the removal of the bony cochlear capsule and the spiral ligament. The organ of Corti, surrounding connective tissue and modiolar bone was removed while preserving the spiral ganglion neurons within the modiolus. […]
Neurite outgrowth was quantified by measuring the total length of neurites per neuron. Neurons were stained with NF200 at either 2 or 3 DIV, and neurite lengths were measured using the Fiji (Image J). Individual neurons were manually selected, and neurite lengths were determined using the Simple Neurite Tracer plugin. […]

B1: 1-30: anti-FAM19A5 antibody, de-immunized variant of 3-2; VH SEQ ID NO: 235, VL SEQ ID NO: 240 (antibody, V domains shown)
VH: AVTLDESGGGLQTPGGALRLSCKASGFDFESFNMFWVRQAPGKGLEYVSQISSSEEDENYAPAVKGRATISRDNGQSTLYLQMNSLRAEDTGTYYCAKSSYDCPYGHCSSGVDSAGEIDAWGHGTEVIVSS
VL: ALTQPSSVSANPGETVKITCSGGGSEEEQYYYGWYQQKPGSAPVTLIYQDEERPSDIPSRFSGSTSGSTATLTITGVQAGDEADYYCGSWDSEDEDHFGAGTTLTVL
modifications: Low-PI VH, 1-30 VH, 1-17 VH, 1-32 VH, 4-11 VH, 6-10 VH; 1-30 VL
On to B1, for which the “effect on ABR threshold by dose” value in assay [1] (one day post noise exposure, 15 mg/kg and 30 mg/kg) was “greatest effects”. For the same molecule, the “ABR threshold across frequencies” value in assay [1] (one day post noise exposure, 1, 3, 7, 15, 30 mg/kg i.v.) is given as “dose-dependent reduction”. Moreover, the ABR threshold result in assay [1] (two weeks post noise exposure, doses of 7, 15 or 30 mg/kg, many of the frequencies) is “significant reduction”. In assay [2], the “neurite length vs control human IgG antibody” value was “promoting neurite outgrowth”.

B2: 2-13: anti-FAM19A5 antibody; VH SEQ ID NO: 35, VL SEQ ID NO: 39 (antibody, V domains shown)
VH: AVTLDESGGGLQTPGGALSLVCKASGFTFSSHGMFWVRQTPGKGLEYVAEITNDGSGTNYGSAVKGRATISRDNGQSTVRLQLNNLRAEDTGTYFCARSTYECPGGFSCWGDTGQIDAWGHGTEVIVSS
VL: ALTQPSSVSANPGETVKITCSGGSYSYGWFQQKSPGSALVTVIYWDDERPSDIPSRFSGALSGSTNTLTITGVQADDEAVYFCGTEDISGTAGVFGAGTTLTVL
modifications: 2-13 VH; 2-13 VL
On to B2, for which, in assay [2], the “neurite length vs control human IgG antibody” value was “promoting neurite outgrowth”.
